The values below come from the RNAGym collection of RNA variant scans (doi:10.1101/gr.219683.116).

The labels stand for the following.
B1: mRNA-splicing (parent)
chain: AGUUGCUGCUGGGAGCUCCAGCACAGUGAAAUGGACAGAAGGGCAGAGCAA

Variants of B1 are the subject of this data set. The experiment in a line: exon inclusion enrichment index; higher = more inclusion; WT1 exon 5 minigene, HEK293.
Regarding G5U G8U C9U U17G C18A, the “exon inclusion enrichment index” value was 0.124.
G5A U7C G8A C9G U10A: the “exon inclusion enrichment index” value came out at 0.989.
U4C G5U C6A U7A C9A U10A: the “exon inclusion enrichment index” value was determined as 0.296.
Regarding C6A U7A C9A U10A G46C A47C, the “exon inclusion enrichment index” value came out at 0.943.
Then G5A C6G U7G C9A G26A U27A, with 0.00661; and G43A C44G, with 0.723; and G5C C6A U7C G8A U10A A35U C36G, with 0.00777.
The result for C6A U7A C9A U10A A35G C36G reads 0.0241.
The result for C6A U7A C9A U10A A35G C36U reads 0.00209.
Turning to G5A U7C G8A U10C G15U C16G, the “exon inclusion enrichment index” value amounted to 1.74.
As for C6A U7A C9A U10A A40U G41U, the “exon inclusion enrichment index” value amounted to 0.373.
Then C6A U7A C9A U10A G11C G12U, with 1.91; and G5U G8U C9U G33C G34C, with 0.0648.
With G5U G8U C9U G33C G34A, the “exon inclusion enrichment index” value was 0.0575.
The result for G5A C6U U7A G8U C9A U17C C18U reads 0.0327; that for G5A C6U U7A G8U C9A U32G, 0.0013; that for G5A U7C G8A U10C A23U C24G, 2.69.
Take G5A C6U U7A G8U C9A U27A: the “exon inclusion enrichment index” value turned out to be 0.0803.
For G5U G8U C9U A20G, the “exon inclusion enrichment index” value turned out to be 0.322.
The result for C6A U7C C9A U10C A23U C24U reads 0.978.
The result for G5U G8U C9U G13U A14C reads 0.0727; that for G5U G8U C9U G43A, 0.671; that for G5A U7C G8A U10C U27G G28U, 0.0167.
Then U4C G5A C6A U7C G8A U10A, with 0.437.
Regarding G5A C6G U7G C9A A39U A40G, the “exon inclusion enrichment index” value is 0.00317.
Then G5A C6G U7G C9A A23U C24A, with 0.000776.
Then G5A C6G U7G C9A A31U U32A, with 0.000867.
Then G5A C6G U7G C9A G38U, with 0.000717.
As to G5C C6G U7C U10C G43A C44G, the “exon inclusion enrichment index” value worked out at 4.94.
The result for G5A U7C G8A U10C A29U A30U reads 0.907; that for C6A U7C C9A U10C C36G A37U, 1.89; that for G2U U3G, 0.359.
The result for G5A C6U U7A G8U C9A A31G reads 0.12.
For G5A C6U U7A G8U C9A G38U A39U, the “exon inclusion enrichment index” value amounted to 0.00248.
For G5U U7G G8U C9U, the “exon inclusion enrichment index” value worked out at 0.893.
As for G5A C6U U7A G8U C9G U10A, the “exon inclusion enrichment index” value turned out to be 0.0375.
Take C6A U7A G8U C9U U10A: the “exon inclusion enrichment index” value came to 0.00366.
Turning to G5C C6A U7C G8A U10A G46A A47U, the “exon inclusion enrichment index” value is 0.159.
The result for C6A U7A C9A U10A C16G U17C reads 0.22; that for G5C C6U G8C C9U U10C G15U, 2.23.
The result for G5A C6G U7G C9A C44G A45C reads 0.00471; that for G13C A14C, 0.19; that for U3G U4G G5C C6U G8C C9U U10C, 0.152.
Then G5A U7C G8A G11A, with 0.186.
In the case of G5A U7C G8A G11C, the “exon inclusion enrichment index” value came out at 1.3.
The result for C6A U7C C9A U10C A40U G41C reads 3.18.
With C6G U7C C9A U10A, the “exon inclusion enrichment index” value was determined as 0.988.
The result for G5A C6U U7A G8U C9A U17G reads 0.0456; that for U4C C6A U7C G8A U10A, 1.12.
Then G5C C6G U7C U10C U32C G33A, with 2.09; and G5U C6G U7C C9A U10C, with 2.41.
Then G5C C6A U7C G8A U10A A39C A40C, with 0.334; and G5C C6U G8C C9U U10C A30C A31G, with 3.01.
With G5U G8U C9U A39C A40C, the “exon inclusion enrichment index” value came to 0.321.
As for C6A U7C C9A U10C A29G A30G, the “exon inclusion enrichment index” value stood at 3.23.
Then A37U G38A, with 0.0367; and A30G A31U, with 0.0224; and G5C C6G U7C U10C U27C G28A, with 3.28.
Then C6A U7C C9A U10C A31G, with 3.73.
Then G2A C6A U7A C9A U10A, with 0.929; and G5A U7C G8A U10C A31G, with 2.95; and C6A U7C C9A U10C G34C A35C, with 0.445.
Take G5C C6A U7C G8A U10A C36A A37G: the “exon inclusion enrichment index” value is 0.0468.
The result for G5A C6G U7G C9A G21U C22U reads 0.00236; that for G5C C6U G8C C9U U10C A47U G48U, 1.45; that for G5U U7A G8A C9U, 0.454.
G5U U7C C9U: the “exon inclusion enrichment index” value turned out to be 0.916.
G5A C6G U7G C9A A47U G48A: the “exon inclusion enrichment index” value was determined as 0.00057.
Then G5A C6G U7G C9A G15C C16A, with 0.00139; and G5C C6U G8C C9U U10C U32C G33A, with 0.84; and U3G, with 0.0194.
Take C6A U7C C9A U10C U17C C18A: the “exon inclusion enrichment index” value is 3.17.
Then C6A U7A C9A U10A G12A G13A, with 1.6.
The result for G5C C6A U7A U10C reads 3.35; that for G5A U7C G8A U10C G33U G34U, 0.351; that for C6A U7C C9A U10C G28A A29G, 1.98.
The result for G5A C6U U7A G8U C9A A39G reads 0.00842; that for G5A C6U U7A G8U C9A A39C, 0.0192.
As for G5C C6U G8C C9U U10C G48U, the “exon inclusion enrichment index” value amounted to 2.26.
Then G5C C6A U7C G8A U10A C36G A37C, with 0.0273; and A47U G48C, with 0.106; and G2C U3G G5C C6U G8C C9U U10C, with 1.98.
On to G5A C6U U7A G8U C9A G38A A39U, for which the “exon inclusion enrichment index” value amounted to 0.00385.
The result for G5A C6G U7G C9A U10G G11C reads 0.00673.
